Assays:
purified protein [1] = substrate: O=C1O[C@@H](COP(=O)(O)O)[C@H](O)[C@@H]1O; assay: purified protein; assay type: biochemical, Halalkalibacterium halodurans; conditions: [Co/Co] form, 2.5 mM Bicine pH 8.3, 0.2 M NaCl, 1% DMSO
purified protein [2] = substrate: O=C1O[C@H](COP(=O)(O)O)[C@H](O)[C@@H]1O; assay: purified protein; assay type: biochemical, Halalkalibacterium halodurans; conditions: [Co/Co] form, 2.5 mM Bicine pH 8.3, 0.2 M NaCl, 1% DMSO

B1: Bh0225 (Halalkalibacterium halodurans C-125) (protein)
chain: MSFIRTLRGDINPEELGFTYSHEHIVCRPDYWVQRQEGDLLLDDKEKSKRDVEDFKRHGGNSIVDATAVDYGRDVGAVKAISDELDVHIIGTAGFNKSFLWNAKIKEELKPIIGGQYDTFAEWIDGSTIHDLTEFVVREVEEGLEGTPWKAGQVKFGTGYNRISPLEEKTLRAVARAHHETKAPIHSHTEVGTMALEQIELLKSEGINLEHVSIGHMDRNPDPYYHEQIAKTGAFLSFDGIGKIKYAPESTRIHCILELVKKGYDQQILISGDTARKTYYKHYDYGLGLEYIIAKWIPRFISEANHRGFDGEALIHTFFVENPARCFAFKL
Q: B1 was tested. Which Km (purified protein [1]) did it give?
A: Its Km is 200 ± 20 µM.

Q: What about the kcat (purified protein [1]) of the same protein?
A: Its kcat is 30 ± 1 s⁻¹.

Q: What about the kcat/Km (purified protein [1]) of the same protein?
A: Its kcat/Km is 150000 ± 15000 M⁻¹ s⁻¹.

Q: And the Km (purified protein [2])?
A: Its Km is 240 ± 20 µM.

Q: And the kcat (purified protein [2])?
A: The kcat was 24 ± 1 s⁻¹.

Q: What about the kcat/Km (purified protein [2]) of the same protein?
A: Its kcat/Km is 100000 ± 10000 M⁻¹ s⁻¹.

Reference: publication PMC3298459
